In patent US11827690B2, “ApoC-II mimetic peptides” (THE UNITED STATES OF AMERICA, as represented by the …, priority 2017, dated 2023):
Blank lines part the entries; values can stand above or below the substance they belong to. Non-standard residues stand in square brackets, D forms with d. No end group written: not given here. *: point of attachment. Stearoyl = CCCCCCCCCCCCCCCCCC(=O)*; Palmitoyl = CCCCCCCCCCCCCCCC(=O)*; Nle = CCCC[C@H](N)C(=O)O; Aib = CC(C)(N)C(=O)O

Legend:
[1] = target: T1, bovine LPL (Bos taurus, UniProt P11151); assay: in vitro LPL assay using apoC-II deficient patient sera as substrate; format: biochemical; details: for effect of lipidation on ability of C2thirdhelix to promote TG hydrolysis: FIG. 9; for promoting TG hydrolysis in the presence of LPL: FIG. 6; for LPL activation / TG hydrolysis: FIG. 52
T1 sequence (P11151 29-478): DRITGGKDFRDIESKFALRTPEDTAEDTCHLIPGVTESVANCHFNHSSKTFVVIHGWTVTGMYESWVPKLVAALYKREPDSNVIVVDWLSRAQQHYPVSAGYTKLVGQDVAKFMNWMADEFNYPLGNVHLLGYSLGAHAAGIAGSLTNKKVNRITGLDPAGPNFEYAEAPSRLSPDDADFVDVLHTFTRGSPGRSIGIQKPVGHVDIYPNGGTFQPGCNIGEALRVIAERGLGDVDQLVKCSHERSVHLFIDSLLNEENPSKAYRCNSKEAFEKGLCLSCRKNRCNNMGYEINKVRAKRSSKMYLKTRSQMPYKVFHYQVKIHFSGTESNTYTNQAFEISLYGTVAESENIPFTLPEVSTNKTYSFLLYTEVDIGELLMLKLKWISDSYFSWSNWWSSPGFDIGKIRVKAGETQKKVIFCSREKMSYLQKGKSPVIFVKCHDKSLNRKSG
Protocol: (§1) Preparation of LPL: frozen stock of 10 μL of 0.5 mg/mL bovine LPL was used and diluted 1:100 (10 μL+990 μL of PBS).
Preparation of 20% Intralipid: 2000 mg/dL TG Intralipid was used to prepare 3 mg/dL TG Intralipid by diluting 1.5 μL of the stock with 998.5 μL PBS, or by diluting the stock 1:10 first and then mixing 15 μL of the diluted stock with 985 μL PBS. When apoC-II deficient human serum was used as a substrate, a frozen 10 μL aliquot of 1711 mg/dL (TG) was diluted by adding 990 μL PBS (1:100 dilution).
(§2) Preparation of free fatty acid (NEFA) assay: NEFA reagents were purchased from Wako Diagnostics, Wako Life Sciences, Inc. Reagent A was prepared by mixing Coloring Reagent A with Solvent A (225 μL per well). Reagent B was prepared by mixing Coloring Reagent B with Solvent B (75 μL per well). 5 nmoL oleic acid standard was prepared by diluting 20 μL of 1 mM oleic acid stock (WAKO NEFA standard solution) with 180 μL of 0.2% BSA.
(§3) LPL activity assay: 10 μL of Intralipid, human plasma sample, or mouse plasma sample was added in each well using repeater pipette. 10 μL (or 15 μL in the wells with no LPL control) of PBS and 10 μL of 1% BSA was added in each well using repeater pipette. 10 μL of peptides were added to corresponding wells in vertical triplicates (lowest concentration is on a left, highest is on the right). The plate was spun down at 1000 RPM for 10 seconds to mix and to remove the solutions from the wall of each well. The plate was put on ice and 5 μL of LPL was added using repeater pipette. The plate was spun down again at 1000 RPM for 10 seconds. The plate was covered and put back on ice for an incubation of 30 min. The plate was then moved to 37° C. and incubated for 1 hour.
(§4) Free fatty acids (NEFA) assay: 45 μL of 5 nmoL standard and 0 nmoL control (0.2% BSA) were added to corresponding wells. 225 μL of reagent A was added in each well using the reagent tray and 12-channel pipette. The plate was incubated for 10 min before 75 μL of reagent B was added to each well using the reagent tray and 12-channel pipette. The plate was not covered due to the high volume. The absorbance at 550 nm and 660 nm was measured.

[2] = system: apoC-II knockout mice; assay: plasma lipids of apoC-II knockout mice after peptide injection; format: in vivo
Protocol: C57Bl/6 mice (wild-type), apoC-II knockout (apoC-II KO) mice, and apoC-III transgenic mice were used for in vivo study. The C57Bl/6 mice (wild-type) were purchased from Taconic Biosciences Inc. The apoC-II KO mice were created as described in Sakurai et al., J Pharmacol Exp Ther 356:341-353, 2016. The apoC-III transgenic mice were generated by overexpressing human apoC-III in C57Bl/6 mice. See Qu et al., J. Lipid Res. 48:1476-1487, 2007.
Mice were fasted overnight (approximately 12 hours) before the study and 6 hours during the study, the next day. The apoC-II mimetic peptides were synthetically produced and free of biological contamination (not available as FDA approved compounds/treatment). […] W.) administered either subcutaneous injection (S.Q. or S.C.), intraperitoneal injection (I.P.) or intravenous injection (I.V.) (in a sterile, pharmaceutical grade PBS solution at a volume ≤200 μL) as described in Sakurai et al., J Pharmacol Exp Ther 356:341-353, 2016.

[3] = target: T1, bovine LPL; assay: in vitro LPL assay using hypertriglyceridemia patient sera as substrate; format: biochemical; details: patient sera TG about 1000 mg/dL to about 1700 mg/dL, FIGS. 15A-D
Protocol: as §1, §2, §3, §4

[4] = system: VLDL isolated from human plasma; assay: ApoC-III displacement study in VLDL isolated from human plasma; format: binding; details: SDS PAGE
Protocol: VLDL or chylomicrons isolated from human plasma were incubated with an apoC-II mimetic peptide for 1 hour at 37° C. and washed 3 times with PBS using spin filter with 100 kDa cutoff membrane. […] ApoC-I, apoC-II, apoC-III, and apoE bands were identified by their corresponding size.

[5] = concentrations from 100 pM to 10 μM, FIG. 12
[6] = 0.25 μmol/kg of body weight intraperitoneal, FIG. 24

Substance: AKC18STYTGIFTDQVLSVLKGEE (AK(Stearoyl)STYTGIFTDQVLSVLKGEE) [C2thirdhelixStearylpos2]
effect of lipidation on ability of C2thirdhelix to promote TG hydrolysis [1]: lipidation enhanced the ability of C2thirdhelix to promote TG hydrolysis

Substance: AMSTYTGIFTDQVLSVLKC18GEE (AMSTYTGIFTDQVLSVLK(Stearoyl)GEE) [C2thirdhelixStearylpos17]
effect of lipidation on ability of C2thirdhelix to promote TG hydrolysis [1]: lipidation enhanced the ability of C2thirdhelix to promote TG hydrolysis

Substance: C18AMSTYTGIFTDQVLSVLKGEE (Stearoyl-AMSTYTGIFTDQVLSVLKGEE) [C2thirdhelixStearylpos1]
effect of lipidation on ability of C2thirdhelix to promote TG hydrolysis [1]: lipidation enhanced the ability of C2thirdhelix to promote TG hydrolysis

Substance: C18DYLKAVFEKKC18RDLYSKFTAAnLSTYTGIFTDQVLSVLKGEE (Stearoyl-DYLKAVFEKK(Stearoyl)RDLYSKFTAA[Nle]STYTGIFTDQVLSVLKGEE) [bi-acyl-Delta4]
promoting TG hydrolysis in the presence of LPL [1]: capable of promoting TG hydrolysis in the presence of LPL

Substance: C18DYLKAVFEKLRDLYSKFTAAnLSTYTGIFTDQVLSVLKGEE (Stearoyl-DYLKAVFEKLRDLYSKFTAA[Nle]STYTGIFTDQVLSVLKGEE) [mono-acyl-Delta4]
promoting TG hydrolysis in the presence of LPL [1]: capable of promoting TG hydrolysis in the presence of LPL

Substance: DKVKEFLSEYWEKAKEFAPAVSTYTGIFTDQVLSVLKGEE [Delta13-31-PV]
LPL activation / TG hydrolysis [1]: promoted TG hydrolysis in vitro in a dose-dependent manner

Substance: DYLKAVFEKKC18RDLYSKFTPAMSTYTGIFTDQVLSVLKGEE (DYLKAVFEKK(Stearoyl)RDLYSKFTPAMSTYTGIFTDQVLSVLKGEE) [Delta4b-2]
TG hydrolysis [1, 5]: promoted TG hydrolysis in a dose-dependent manner

Substance: DYLKAVFEKLRDLYSKFFPAMSTYTGIFTDQVLSVLKGEE [Delta4b T18F]
TG hydrolysis [1, 5]: promoted TG hydrolysis in a dose-dependent manner

TG hydrolysis ([1]; peptide concentrations from 10 pM to 100 μM, FIG. 13): promoted TG hydrolysis
Substance: DYLKAVFEKLRDLYSKFTAAKC16STYTGIFTDQVLSVLKGEE (DYLKAVFEKLRDLYSKFTAAK(Palmitoyl)STYTGIFTDQVLSVLKGEE) [Delta4c]

Substance: DYLKAVKC18EKLRDLYSKFTPAMSTYTGIFTDQVLSVLKGEE (DYLKAVK(Stearoyl)EKLRDLYSKFTPAMSTYTGIFTDQVLSVLKGEE) [Delta4b-1]
TG hydrolysis [1, 5]: promoted TG hydrolysis in a dose-dependent manner

LPL activation / TG hydrolysis [1]: activated LPL in vitro
Substance: DYLKEVAibEKLRDLYEKAibFPAVSTYTGIFTDQVLSVLKGEE (DYLKEV[Aib]EKLRDLYEK[Aib]FPAVSTYTGIFTDQVLSVLKGEE) [Delta6T18F-PV-AIB7,17]

LPL activation / TG hydrolysis [1]: activated LPL in vitro
Substance: DYLKEVFEKLRDLYEKFFPAVSTYTGIFTDQVLSVLKGEE [Delta6T18F-PV]
time of maximum reduction of plasma TG ([2]; 0.1 μmol/kg intraperitoneally, after the peptide injection): about 6 hours
plasma TG ([2]; 0.1 μmol/kg of body weight intraperitoneally, FIG. 53): rapid reduction of plasma TG

LPL activation [3]: activated LPL in vitro
Substance: DYLKEVFEKLRDLYEKFTAALSTYTGIFTDQVLSVLKGEE (not fully specified) [Delta6L]

Substance: DYLKEVFEKLRDLYEKFTAAnLSTYTGIFTDQVLSVLKGEENH2 (DYLKEVFEKLRDLYEKFTAA[Nle]STYTGIFTDQVLSVLKGEE-NH2; N-terminus assumed; SMILES CCCC[C@H](NC(=O)[C@H](C)NC(=O)[C@H](C)NC(=O)[C@@H](NC(=O)[C@H](Cc1ccccc1)NC(=O)[C@H](CCCCN)NC(=O)[C@H](CCC(=O)O)NC(=O)[C@H](Cc1ccc(O)cc1)NC(=O)[C@H](CC(C)C)NC(=O)[C@H](CC(=O)O)NC(=O)[C@H](CCCNC(=N)N)NC(=O)[C@H](CC(C)C)NC(=O)[C@H](CCCCN)NC(=O)[C@H](CCC(=O)O)NC(=O)[C@H](Cc1ccccc1)NC(=O)[C@@H](NC(=O)[C@H](CCC(=O)O)NC(=O)[C@H](CCCCN)NC(=O)[C@H](CC(C)C)NC(=O)[C@H](Cc1ccc(O)cc1)NC(=O)[C@@H](N)CC(=O)O)C(C)C)[C@@H](C)O)C(=O)N[C@@H](CO)C(=O)N[C@H](C(=O)N[C@@H](Cc1ccc(O)cc1)C(=O)N[C@H](C(=O)NCC(=O)N[C@H](C(=O)N[C@@H](Cc1ccccc1)C(=O)N[C@H](C(=O)N[C@@H](CC(=O)O)C(=O)N[C@@H](CCC(N)=O)C(=O)N[C@H](C(=O)N[C@@H](CC(C)C)C(=O)N[C@@H](CO)C(=O)N[C@H](C(=O)N[C@@H](CC(C)C)C(=O)N[C@@H](CCCCN)C(=O)NCC(=O)N[C@@H](CCC(=O)O)C(=O)N[C@@H](CCC(=O)O)C(N)=O)C(C)C)C(C)C)[C@@H](C)O)[C@@H](C)CC)[C@@H](C)O)[C@@H](C)O) [Delta6-NH]
plasma TG [2, 6]: significant reduction of plasma TG
apoC-III displacement in VLDL [4]: capable of displacing apoC-III

LPL activation [3]: activated LPL in vitro
Substance: DYLKEVFEKLRDLYEKFTPALSTYTGIFTDQVLSVLKGEE [Delta6PL]

apoC-III displacement in VLDL [4]: capable of displacing apoC-III
Substance: DYLKEVFEKLRDLYEKKC18TAAnLSTYTGIFTDQVLSVLKGEE (DYLKEVFEKLRDLYEKK(Stearoyl)TAA[Nle]STYTGIFTDQVLSVLKGEE) [Delta6b-A]
plasma TG [2, 6]: significant reduction of plasma TG

apoC-III displacement in VLDL [4]: capable of displacing apoC-III
Substance: DYLKEVFEKLRDLYEKKC18TPAnLSTYTGIFTDQVLSVLKGEE (DYLKEVFEKLRDLYEKK(Stearoyl)TPA[Nle]STYTGIFTDQVLSVLKGEE) [Delta6b-P]
plasma TG [2, 6]: significant reduction of plasma TG
